In this experiment the target is T1, Apo-2 ligand (soluble Apo-2L, Pitti et al.) (UniProt P50591 114-281).
T1 construct: also called TRAIL; 125I-Apo-2L
The experiment can be described thus: 125I-Apo-2L binding to Apo-2DcR-transfected 293 cells; nonspecific binding with 0.5 ug/ml unlabeled Apo-2L.

Experimental findings from patent publication US20020102706A1 (published 2002) are described below.

T1 sequence (P50591 114-281 limits assumed): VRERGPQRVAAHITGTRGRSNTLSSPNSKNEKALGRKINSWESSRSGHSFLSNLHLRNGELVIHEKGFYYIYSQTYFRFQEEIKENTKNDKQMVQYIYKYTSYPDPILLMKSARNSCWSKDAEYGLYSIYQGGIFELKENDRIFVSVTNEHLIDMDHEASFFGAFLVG
Description: The effect of pre-treatment of the cells with phosphatidylinositol-specific phospholipase C (PI-PLC) on the binding was also analyzed.
(1 μg/ml) was added to one of the two aliquots derived from each transfection, 5 and the cells were incubated 1 hour at 37° C. The cells were washed and respuspended in 1 ml PBS containing 1% BSA (Sigma), and 0.04 ml aliquots were placed into tubes in triplicate. […] After a 1 hour incubation at room temperature, the cells were washed in ice cold PBS, pelleted, and counted for radioactivity.

B1: full-length native sequence human Apo-2DcR (receptor)
chain: ATTARQEEVPQQTVAPQQQRHSFKGEECPAGSHRSEHTGACNPCTEGVDYTNASNNEPSCFPCTVCKSDQKHKSSCTMTRDTVCQCKEGTFRNENSPEMCRKCSRCPSGEVQVSNCTSWDDIQCVEEFGANATVETPAAEETMNTSPGTPAPAAEETMNTSPGTPAPAAEETMTTSPGTPAPAAEETMTTSPGTPAPAAEETMTTSPGTPA
notes: also called Apo-2DcR receptor; pRK5-hApo-2DcR product
Turning to B1, the binding result was “binds”.
